Assay results: US20150139990A1 (DAINIPPON SUMITOMO PHARMA, published 2015)
Numbering of substitutions follows the chain as printed. In names and notes the source's numbering stands. Blank lines part the entries; values can stand above or below the binder they belong to.

Assays:
[1] = molecular target: T1, human CD81 on CD81-expressing cells (Jurkat E6.1, human PBMC, Ramos) (human, UniProt P60033 1-236); assay: flow cytometry, Jurkat E6.1 cells
T1 construct: endogenous CD81 of the cells; also called wild type human CD81
T1 sequence: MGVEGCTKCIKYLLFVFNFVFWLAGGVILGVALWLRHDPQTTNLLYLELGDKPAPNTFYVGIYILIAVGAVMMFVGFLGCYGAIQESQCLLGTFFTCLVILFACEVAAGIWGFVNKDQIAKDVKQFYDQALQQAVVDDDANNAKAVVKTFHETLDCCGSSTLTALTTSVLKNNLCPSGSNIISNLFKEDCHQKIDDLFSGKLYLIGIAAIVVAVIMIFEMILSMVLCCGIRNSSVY
Description: Based on known information (JOURNAL OF VIROLOGY., 79, 4316-4328, 2005), Jurkat E6.1 cells and human PBMC (Peripheral Blood Mononuclear cells) were used as human CD81-expressing cells to confirm binding of the antibodies of the present invention obtained in Example 1 to the human CD81-expressing cells. Jurkat E6.1 cells were purchased from European Collection of Cell Cultures (ECACC) (Cat No. 88042803). Human PBMC were purchased from KAC Co., Ltd. (KAC). These cells were collected by centrifugation (4,000 rpm, 3 min, 4° C.) and suspended in FACS staining buffer (phosphate buffer, 0.09% sodium azide, 1% bovine serum albumin (BSA: Hyclone Laboratories)). The number of viable cells was counted using trypan blue and 10⁶ cells/100 μl were added in an eppendorf tube.
To the cells prepared in (1) above was added the anti-human CD81 antibody (002-A07 or 005-001) prepared in Example 1 or a human IgG4 (Acris) as a control (0.1 μg), and the cells were incubated for 20 min at 4° C. […] The binding ratio (%) of the anti-human CD81 antibody to the cells was analyzed by flow cytometry using FACS Calibur (BD Biosciences) and calculated as the percentage of cells having a PE-derived fluorescent intensity greater than that observed when the control IgG4 is used. […]

human CD81 mutant Y127W = molecular target: T2, human CD81 mutant Y127W (human, UniProt P60033 1-236, limits assumed); assay: ELISA
T2 construct: as m30; not shown: C-terminal V5 and 6xHis tags
T2 sequence: T1 sequence with Y127W

human CD81 mutant N172A = molecular target: T3, human CD81 mutant N172A (human, UniProt P60033 1-236, limits assumed); assay: ELISA
T3 construct: as m30; not shown: C-terminal V5 and 6xHis tags
T3 sequence: T1 sequence with N172A

binding ratio to cells (%) [1]: 100%
B1: 002-A07 IgG4 antibody (antibody)
heavy: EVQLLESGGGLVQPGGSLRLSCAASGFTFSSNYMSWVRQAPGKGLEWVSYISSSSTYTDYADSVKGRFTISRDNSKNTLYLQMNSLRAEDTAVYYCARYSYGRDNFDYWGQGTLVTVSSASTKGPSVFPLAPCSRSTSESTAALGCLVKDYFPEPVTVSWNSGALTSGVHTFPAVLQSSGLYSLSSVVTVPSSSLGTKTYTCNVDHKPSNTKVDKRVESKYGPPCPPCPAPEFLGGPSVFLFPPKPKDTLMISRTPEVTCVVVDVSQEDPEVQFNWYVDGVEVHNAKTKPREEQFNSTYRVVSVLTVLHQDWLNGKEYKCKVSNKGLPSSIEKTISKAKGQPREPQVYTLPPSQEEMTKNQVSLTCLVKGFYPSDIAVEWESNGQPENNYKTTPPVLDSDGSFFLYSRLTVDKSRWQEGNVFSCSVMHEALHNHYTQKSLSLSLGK
light: QSVLTQPPSASGTPGQRVTISCTGSTSNIGAGYDTHWYQQLPGTAPKLLIYGNSNRPSGVPDRFSGSKSGTSASLAISGLRSEDEADYYCQSYDTNLSVWVFGGGTKLTVLGQPKAAPSVTLFPPSSEELQANKATLVCLISDFYPGAVTVAWKADSSPVKAGVETTTPSKQSNNKYAASSYLSLTPEQWKSHRSYSCQVTHEGSTVEKTVAPTECS
notes: human IgG4 S228P, lambda light chain

relative binding affinity (human CD81 mutant Y127W): < 20%
B2: 002-A07 S115A (antibody, human IgG4 S228P, lambda, V domains shown)
VH: EVQLLESGGGLVQPGGSLRLSCAASGFTFSSNYMSWVRQAPGKGLEWVSYISSSSTYTDYADSVKGRFTISRDNSKNTLYLQMNSLRAEDTAVYYCARYSYGRDNFDYWGQGTLVTVSS
VL: QSVLTQPPSASGTPGQRVTISCTGSTSNIGAGYDTHWYQQLPGTAPKLLIYGNSNRPSGVPDRFSGSKSGTSASLAISGLRSEDEADYYCQSYDTNLAVWVFGGGTKLTVLG
notes: IgG4 S228P; glycosylation site mutant of 002-A07 VL

relative binding affinity (human CD81 mutant N172A): < 20%
B3: 003-D07 (antibody, human IgG4 S228P, lambda, V domains shown)
VH: B2 VH with G102D
VL: B2 VL with P8F, Q40H, A98S
notes: IgG4 S228P
